Key:
Assay in all cases: peptide microarray (RepliTope)
SEQ ID NO 74 = molecular target: T1, SEQ ID NO 74 (human)
T1 construct: 15-mer of the human mortalin 348-450 array; by its order peptide #53 (inferred)
T1 peptide: QDLFGRAPSKAVNPD
Description: (§1) Eighty nine (89) peptides (15 amino acids each) which were designed to each be shifted by one amino acid on the amino acid sequence ranging from position 348 to position 450 of human mortalin containing the amino acid sequence (SEQ ID NO: 56) ranging from the above position 381 to position 410, were chemically synthesized. Epitope mapping (RepliTope mapping) analysis was then carried out on them using a Tecon HS400 microarray analysis station (FIG. 14).
(§2) Background measurement was carried out for each microarray using an Axon Genepix scanner, so that it was confirmed that no signals were detected. All microarrays were treated using a blocking buffer (Pierce, Puperblock TBS #37536).
(§3) As anti-mortalin monoclonal antibodies having the cellular internalizing function, two antibodies 37-6 and 38-4 were prepared. Antibody 53-3 that is an anti-mortalin antibody not having the cellular internalizing function was prepared for comparison. Each antibody (30 μg/mL, 200 μL) diluted with a blocking buffer was applied to microarrays and then incubated. After the microarrays were washed 3 instances with a TBS buffer containing 0.1% T20, a fluorescence-labeled secondary antibody (1 μg/mL, anti-mouse-Dylight 649; Pierce #35515) was applied thereto and then incubated. Similarly, a control array subjected to incubation with only the secondary antibody was also treated so as to confirm no detected signals.

SEQ ID NO 67 = molecular target: T2, SEQ ID NO 67 (human)
T2 construct: 15-mer of the human mortalin 348-450 array
T2 peptide: PKVQQTVQDLFGRAP
Description: as §1, §2, §3

SEQ ID NO 72 = molecular target: T3, SEQ ID NO 72 (human)
T3 construct: 15-mer of the human mortalin 348-450 array; by its order peptide #51 (inferred)
T3 peptide: TVQDLFGRAPSKAVN
Description: as §1, §2, §3

SEQ ID NO 80 = molecular target: T4, SEQ ID NO 80 (human)
T4 construct: 15-mer of the human mortalin 348-450 array
T4 peptide: GMTRMPKVQQTVQDL
Description: as §1, §2, §3

SEQ ID NO 79 = molecular target: T5, SEQ ID NO 79 (human)
T5 construct: 15-mer of the human mortalin 348-450 array
T5 peptide: EVILVGGMTRMPKVQ
Description: as §1, §2, §3

SEQ ID NO 73 = molecular target: T6, SEQ ID NO 73 (human)
T6 construct: 15-mer of the human mortalin 348-450 array; by its order peptide #52 (inferred)
T6 peptide: VQDLFGRAPSKAVNP
Description: as §1, §2, §3

SEQ ID NO 69 = molecular target: T7, SEQ ID NO 69 (human)
T7 construct: 15-mer of the human mortalin 348-450 array; by its order peptide #48 (inferred)
T7 peptide: VQQTVQDLFGRAPSK
Description: as §1, §2, §3

SEQ ID NO 81 = molecular target: T8, SEQ ID NO 81 (human)
T8 construct: 15-mer of the human mortalin 348-450 array
T8 peptide: TRMPKVQQTVQDLFG
Description: as §1, §2, §3

SEQ ID NO 82 = molecular target: T9, SEQ ID NO 82 (human)
T9 construct: 15-mer of the human mortalin 348-450 array
T9 peptide: RMPKVQQTVQDLFGR
Description: as §1, §2, §3

SEQ ID NO 68 = molecular target: T10, SEQ ID NO 68 (human)
T10 construct: 15-mer of the human mortalin 348-450 array; by its order peptide #47 (inferred)
T10 peptide: KVQQTVQDLFGRAPS
Description: as §1, §2, §3

SEQ ID NO 78 = molecular target: T11, SEQ ID NO 78 (human)
T11 construct: 15-mer of the human mortalin 348-450 array
T11 peptide: GEVILVGGMTRMPKV
Description: as §1, §2, §3

SEQ ID NO 75 = molecular target: T12, SEQ ID NO 75 (human)
T12 construct: 15-mer of the human mortalin 348-450 array; by its order peptide #54 (inferred)
T12 peptide: DLFGRAPSKAVNPDE
Description: as §1, §2, §3

SEQ ID NO 71 = molecular target: T13, SEQ ID NO 71 (human)
T13 construct: 15-mer of the human mortalin 348-450 array; by its order peptide #50 (inferred)
T13 peptide: QTVQDLFGRAPSKAV
Description: as §1, §2, §3

SEQ ID NO 77 = molecular target: T14, SEQ ID NO 77 (human)
T14 construct: 15-mer of the human mortalin 348-450 array
T14 peptide: KAMQDAEVSKSDIGE
Description: as §1, §2, §3

SEQ ID NO 70 = molecular target: T15, SEQ ID NO 70 (human)
T15 construct: 15-mer of the human mortalin 348-450 array; by its order peptide #49 (inferred)
T15 peptide: QQTVQDLFGRAPSKA
Description: as §1, §2, §3

SEQ ID NO 76 = molecular target: T16, SEQ ID NO 76 (human)
T16 construct: 15-mer of the human mortalin 348-450 array; by its order peptide #55 (inferred)
T16 peptide: LFGRAPSKAVNPDEA
Description: as §1, §2, §3

Measured: binding result

B1: anti-mortalin monoclonal antibody 52-3 (antibody, V domains shown)
VH: QVQLQQPGAELVKPGASVKLSCKASGYTFTSYWMHWVKQRPGQGLEWIGEINPSNGRTNYNEKFKSKATLTVDKSSSTAYMQLSSLTSEDSAVYYCARSRYYGSCYFDYWGQGTTLTVSS
VL: KIVMTQAAFSNPVTLGTSASISCRSSKSLLYSNGITYLYWYLQKPGQSPQLLIYQMSNLASGVPDRFSSSGSGTDFTLRISRVEAEDVGVYYCAQNLELPWTFGGGTKLEIK
notes: also called 52-3 antibody; non-internalization antibody
no binding (tested: 30 µg/mL): SEQ ID NO 74 | SEQ ID NO 67 | SEQ ID NO 72 | SEQ ID NO 80 | SEQ ID NO 79 | SEQ ID NO 73 | SEQ ID NO 69 | SEQ ID NO 81 | SEQ ID NO 82 | SEQ ID NO 68 | SEQ ID NO 78 | SEQ ID NO 75 | SEQ ID NO 71 | SEQ ID NO 77 | SEQ ID NO 70 | SEQ ID NO 76

Source: patent publication US20100297664A1 (NATIONAL INSTITUTE OF ADVANCE INDUSTRIAL SCIENCE AND …, published 2010)
